From publication PMC8891067

B1: Spt (CCNA_01220) (Caulobacter vibrioides NA1000) (protein)
chain: MGLFDKHLAYRDAYKAIQDVGANPFKVRFDAVHSPTEGVVDGRPTILLGTNNYLGLTFDEQAIAASVKAVQERGTGTTGSRIANGSFESHVELEQELAKFYGRKHAMVFTTGYQANLGVLSTLVGRGDHLILDADSHASIYDGSRLGHAEVIRFRHNDPEDLAKRLRRLGDAPGERLIVVEGIYSMIGDVAPLKEIAAVKREMGGYLLVDEAHSMGVLGATGRGLAEAAGVEEDVDFIVGTFSKSLGAIGGFCVSDHDDFDVMRVICRPYMFTASLPPAVAASTVTALRRMIEQPELRDRLNRNAKRLYDGLTAMGFLTGPSASPIVAATMPDQERAIAMWNGLLQAGVYLNLALPPATPDSRPLLRASVSAAHTDEQIDAVLKTYGEIGAALGVIEPLKRARA
B2: bCerS (CCNA_01212) (Caulobacter vibrioides NA1000) (protein)
chain: MPFDSTNADLSVIPVKTPAELKRFIALPARLNAKDPNWITPLFMERTDALTPKTNPFFDHAEVQLFLATRGGRDVGRISAQIDQLTPQPTEGRLDGHFGMIAAEDDPAVFNVLFRAAEDWLRARGRTHAVGPFNLSINEEVGLLVWGFDTPPMVLMGHDPVYAGPRVEEQGYAKAQDLFAYKADETGDIPEIAQRRVKRGLPSGVVLRQLDMSRYDQEVQTLTEILNDAWSDNWGFTPTTEAETRQLAKSLKQVIDQRLVWFSEIDGEAAGVVVFLPNVNEAIADLKGKLLPFGWAKLLWRLKVKGVKSARIPLMGVKKKFQTSQRGRMLPFWMMKASRDMAMSLGYNRYEISWVLEANKAMTHIAENVGGTHYKTYRVYEKAL

What was measured:
[1] = substrate: CCCCCCCCCCCCCCCC(=O)SCCNC(=O)CCNC(=O)[C@H](O)C(C)(C)COP(=O)(O)OP(=O)(O)OC[C@H]1O[C@@H](n2cnc3c(N)ncnc32)[C@H](O)[C@@H]1OP(=O)(O)O; assay: purified protein; type: biochemical, Caulobacter vibrioides; conditions: 100 mM HEPES
[2] = substrate: N[C@@H](CO)C(=O)O; assay: purified protein; type: biochemical, Caulobacter vibrioides; conditions: 250 μM C16:0-CoA, 100 mM HEPES, 250 mM NaCl, pH 7.0, 30 °C

Row | Protein | Km ([1]; 20 mM L-serine, 250 mM NaCl, pH 7.0, 30 °C) | Km [2] | Km ([1]; with 3-KDS (40 μM), 150 mM NaCl, pH 7.5, 30 °C)
1 | B1 | 110.40 ± 13.37 µM | 2980 ± 250 µM | 
2 | B2 |  |  | 21.3 ± 4.1 µM
